How the values were obtained:
[1] = molecular target: recombinant Penaeus monodon lipopolysaccharide and β-1,3-glucan binding protein (Penaeus monodon) (UniProt H9MER4); test: BLI; BLItz; rPmLGBP immobilised on Octet SA biosensor activated with EDC and NHS; analytes in 20 mM HEPES pH 7.5, 150 mM NaCl, 10 mM CaCl2; association 4 minutes, dissociation 4 minutes; curves globally fitted
[2] = molecular target: Penaeus monodon lipopolysaccharide and β-1,3-glucan binding protein (endogenous, hemolymph) (Penaeus monodon (endogenous in shrimp hemolymph))
[3] = molecular target: T1, rPmFREP CRD (Penaeus monodon, UniProt A0A068LKH5); test: GlcNAc-resin affinity column, elution with free GlcNAc, anti-His Western blot; type: binding; settings: 8 ml GlcNAc resin; eluted with 100 mM GlcNAc; proteins loaded at 5 µM each; immobilised ligand
T1 construct: XEEL signal peptide, His6 tag; insect cells; lacks oligomeric structure

[4] = molecular target: T2, recombinant Penaeus monodon lipopolysaccharide and β-1,3-glucan binding protein (Penaeus monodon, UniProt H9MER4 1-366); test: curdlan binding assay; rPmFREP and rPmLGBP, 0.1 µM each, incubated with 1 mg curdlan in 20 mM HEPES pH 7.5, 150 mM NaCl, 10 mM CaCl2, 4°C, 16 hours; curdlan collected by centrifugation, washed three times, eluted with 2% SDS; anti-His Western blot, densitometry of rPmFREP; settings: both partners purified
T2 construct: The construct holds the protein's own N-terminus (signal peptide); also called rPmLGBP; PmLGBP; source: insect cell expression system (Bac-to-Bac baculovirus), purified (Ni-NTA); not shown: His6, C-terminal, kept
T2 sequence (looked up): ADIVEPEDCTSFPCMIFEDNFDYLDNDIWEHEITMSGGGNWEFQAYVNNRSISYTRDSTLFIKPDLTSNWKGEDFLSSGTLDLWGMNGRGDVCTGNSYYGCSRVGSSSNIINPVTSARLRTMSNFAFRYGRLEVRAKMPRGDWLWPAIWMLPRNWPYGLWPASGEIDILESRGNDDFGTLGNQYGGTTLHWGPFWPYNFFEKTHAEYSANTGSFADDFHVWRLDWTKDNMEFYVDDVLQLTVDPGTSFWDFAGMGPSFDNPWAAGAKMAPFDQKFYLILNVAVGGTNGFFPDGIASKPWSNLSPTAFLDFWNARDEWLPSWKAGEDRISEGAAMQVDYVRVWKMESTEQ

[5] = molecular target: T2, recombinant Penaeus monodon …; test: BLI; BLItz; rPmLGBP immobilised on Octet SA biosensor activated with EDC and NHS; analytes in 20 mM HEPES pH 7.5, 150 mM NaCl, 10 mM CaCl2; association 4 minutes, dissociation 4 minutes; curves globally fitted; settings: both partners purified

With rPmFREP CC-MBP (domain or fragment) the Kd [1] was 220 nM and the PO activity in hemolymph of shrimp injected with the recombinant protein (1 nmol/g shrimp) and then infected with VP AHPND, against rMBP-injected control shrimp [2] was 3 fold.

CC(=O)N[C@H]1C(O)O[C@H](CO)[C@@H](O)[C@@H]1O (stereo partly drawn) [N-acetylglucosamine] was tested, and the “GlcNAc-resin affinity column, elution with free GlcNAc, anti-His Western blot” value [3] was “rPmFREP and rPmFREP CRD were bound to the GlcNAc column”.

B1: recombinant Penaeus monodon fibrinogen-related protein (natural protein, UniProt A0A068LKH5 1-312, looked up)
chain: TTERTDTAEPQQPGGCHALPSLLQSAGSSLTCIAASLINCQANENDQLSIAQDLRDTMSEVRRAIVDAERRRRRPRHCRDLQLDGDSESGVRRVFPFRSSPDAAATVYCDQETDGGGWTVFQRRLKLPVREDFYRTWVEYELGFGHMDGGEFWLGLDLVHRLTSTGLQEMRIDLTDYEDNAKWAKYGVFHLGDASTKYRLKVGRYNGTAGDGFGSGRHDGHPFTTHDNDNDGDGANCAARYRGAWWYDKCHISNLNGFPYEGDHESYADGIEWQPWRGYHYSLKTTTMMIRPAF
notes: also called rPmFREP; PmFREP; source: insect cell expression system (baculovirus), purified (Ni-NTA)
In the case of B1, the “fold more rPmFREP in the curdlan elution fraction with rPmLGBP than without it” value [4] is reported as about 3.1 fold, the Kd [5] is reported as 340 nM and the PO activity in hemolymph of shrimp injected with the recombinant protein (1 nmol/g shrimp) and then infected with VP AHPND, against rMBP-injected control shrimp [2] is reported as 3.4 fold.

— PMC12751051, “Penaeus monodon fibrinogen-related lectin interacts with lipopolysaccharide and β-1,3-glucan binding protein to activate the innate immune system” (Biochemical Journal, 2025)
